Test results published in patent publication US20190336529A1 (OSLO UNIVERSITETSSYKEHUS HF, published 2019).
Blank lines part the entries; values can stand above or below the molecule they belong to.

Key:
[1] = target: MART-1 peptide on HLA-A*02:01 (human); assay: CD107a by flow cytometry; sorted TCR+ CD8- T cells incubated for 5 hours with peptide-loaded T2 cells. The result sentence names SEQ ID NO: 56, but the method says the cells were loaded with the analogue SEQ ID NO: 80.; full-length, on cells
[2] = target: MART-1 26-35 peptide (SEQ ID NO: 56) presented by HLA-A2 on cells (human); assay: cell-based or functional assay
[3] = target: TGFβRII frameshift peptide p573 (SEQ ID NO: 1) presented by HLA-A2 on cells (human); assay: cell-based or functional assay

EC50 of peptide [1]: 7 nM
Molecule: DMF5

EC50 of the peptide for CD107a staining of TCR+ CD8- T-cells after 5 hours with peptide-loaded HLA-A2+ T2 cells [2]: 7 nM
Molecule: MART-1-specific TCR DMF5 (on the surface of transduced T-cells)

EC50 of the peptide for CD107a staining of TCR+ CD8- T-cells after 5 hours with peptide-loaded HLA-A2+ T2 cells [3]: 2 nM
B1: Radium-1 TCR (full-length, on the surface of T-cells) (TCR, V domains shown)
V domain 1: GIQVEQSPPDLILQEGANSTLRCNFSDSVNNLQWFHQNPWGQLINLFYIPSGTKQNGRLSATTVATERYSLLYISSSQTTDSGVYFCAVNAGNMLTFGGGTRLMVKP
V domain 2: DVKVTQSSRYLVKRTGEKVFLECVQDMDHENMFWYRQDPGLGLRLIYFSYDVKMKEKGDIPEGYSVSREKKERFSLILESASTNQTSMYLCASSSGVTGELFFGEGSRLTVLE
